The data set addresses T1, N-succinyl-Ala-Ala-Pro-Phe-p-nitroanilide.
T1 chain: AAPF

The values that follow come from US20040052799.

B1: Recombinant H. pylori peptidyl-prolyl cis-trans isomerase (ppiB), His-tagged (protein)
chain: FIAIIEHLNDKSLSQRFMMKPIKTYDIKEEELAKTAYATIKTNKGNITLELFYKDAPQAVSNFVTLAKEGFYNGLNFHRVIAGFVAQGGCPYGTGTGGPEHRIKCEVAHNPNKHQRGSISMAHAGRDTGGSQFFLCFVDLPHLDGEHTVFGKITSAESLSVLDKIKQGDIIESVVFSPSL
On to B1, for which the kcat entry is recorded as “This corresponds to a kcat of 1.6 sec^-1”.
